Consider 8 substances from PMC9489782.

The term Kd denotes the free concentration of one partner at which half of the binding sites on the other are occupied at equilibrium, for simple one-to-one binding. By stoichiometry N is commonly meant the number of molecules, sites or subunits per partner or assembly.

Targets include IGFBP5 K128D (human) (UniProt P24593); FL IGFBP5 (human) (UniProt P24593); IGFBP5 K128A (human) (UniProt P24593).
Assay [1] has as its target chimeric PAPP-A^1100-1111* (loop 2 replaced by amino acids 1125-1136 from PAPP-A2) (human).
For assay [2], the target named is PAPP-A^1100-1135* (PAPP-A^1100-1135 replaced with PAPP-A2^1125-1162) (human).
The target in assay [3] is catalytically inactive full-length (FL) PAPP-A (E483A) (human).
The target in assay [4] is FAM-labeled FL IGFBP5 (human) (UniProt P24593). Description: fluorescence polarisation; direct binding: 5 nM FAM-labeled FL IGFBP5, serial dilutions of PAPP-A (E483A) (10 uM-50 nM), PBS, room temperature, read at 10 min; EC50 of the fit taken as KD. Background: Fluorescence polarisation rises when a labelled molecule tumbles more slowly, as on binding a larger partner.
Assay [5] concerns the target PAPP-A^4C4S (C1112S, C1125S, C1130S and C1135S) (human).
The target of assay [6] is Wild type (WT) PAPP-A (auto-cleaved) (human) (UniProt Q13219).
Assay [7] has as its target N-terminal Alexa Fluor 568 conjugated IGFBP5^121-143 (human). Description: fluorescence polarisation; direct binding: 5 nM N-terminal Alexa Fluor 568 IGFBP5^121-143, serial dilutions of WT PAPP-A (5.65 uM to 33 nM), PBS, room temperature, read at 10 min; EC50 of the fit taken as KD.
Assay [8] addresses Wild type (WT) PAPP-A (auto-cleaved) (human) (UniProt Q13219). Kind of assay: SEC; Superose 6 Increase 10/300 in 1X PBS, 0.5 mL/min; 0.2 mL of each protein at 1.4 uM; fractions on reduced SDS-PAGE.
The target is the same in assay [9]. Kind of assay: SEC-MALS; Superdex200 Increase 10/300 GL in PBS, 0.5 mL/min; PAPP-A and PAPP-A (E483A) 100 uL of 1 mg/mL; PAPP-A2 100 uL of 1, 3 and 6 mg/mL.
Assay [10] concerns the target PAPP-A triple mutant L1254A/F1257A/H1211A (human).

PAPP-A (1267), sequence (Q13219 23-1627): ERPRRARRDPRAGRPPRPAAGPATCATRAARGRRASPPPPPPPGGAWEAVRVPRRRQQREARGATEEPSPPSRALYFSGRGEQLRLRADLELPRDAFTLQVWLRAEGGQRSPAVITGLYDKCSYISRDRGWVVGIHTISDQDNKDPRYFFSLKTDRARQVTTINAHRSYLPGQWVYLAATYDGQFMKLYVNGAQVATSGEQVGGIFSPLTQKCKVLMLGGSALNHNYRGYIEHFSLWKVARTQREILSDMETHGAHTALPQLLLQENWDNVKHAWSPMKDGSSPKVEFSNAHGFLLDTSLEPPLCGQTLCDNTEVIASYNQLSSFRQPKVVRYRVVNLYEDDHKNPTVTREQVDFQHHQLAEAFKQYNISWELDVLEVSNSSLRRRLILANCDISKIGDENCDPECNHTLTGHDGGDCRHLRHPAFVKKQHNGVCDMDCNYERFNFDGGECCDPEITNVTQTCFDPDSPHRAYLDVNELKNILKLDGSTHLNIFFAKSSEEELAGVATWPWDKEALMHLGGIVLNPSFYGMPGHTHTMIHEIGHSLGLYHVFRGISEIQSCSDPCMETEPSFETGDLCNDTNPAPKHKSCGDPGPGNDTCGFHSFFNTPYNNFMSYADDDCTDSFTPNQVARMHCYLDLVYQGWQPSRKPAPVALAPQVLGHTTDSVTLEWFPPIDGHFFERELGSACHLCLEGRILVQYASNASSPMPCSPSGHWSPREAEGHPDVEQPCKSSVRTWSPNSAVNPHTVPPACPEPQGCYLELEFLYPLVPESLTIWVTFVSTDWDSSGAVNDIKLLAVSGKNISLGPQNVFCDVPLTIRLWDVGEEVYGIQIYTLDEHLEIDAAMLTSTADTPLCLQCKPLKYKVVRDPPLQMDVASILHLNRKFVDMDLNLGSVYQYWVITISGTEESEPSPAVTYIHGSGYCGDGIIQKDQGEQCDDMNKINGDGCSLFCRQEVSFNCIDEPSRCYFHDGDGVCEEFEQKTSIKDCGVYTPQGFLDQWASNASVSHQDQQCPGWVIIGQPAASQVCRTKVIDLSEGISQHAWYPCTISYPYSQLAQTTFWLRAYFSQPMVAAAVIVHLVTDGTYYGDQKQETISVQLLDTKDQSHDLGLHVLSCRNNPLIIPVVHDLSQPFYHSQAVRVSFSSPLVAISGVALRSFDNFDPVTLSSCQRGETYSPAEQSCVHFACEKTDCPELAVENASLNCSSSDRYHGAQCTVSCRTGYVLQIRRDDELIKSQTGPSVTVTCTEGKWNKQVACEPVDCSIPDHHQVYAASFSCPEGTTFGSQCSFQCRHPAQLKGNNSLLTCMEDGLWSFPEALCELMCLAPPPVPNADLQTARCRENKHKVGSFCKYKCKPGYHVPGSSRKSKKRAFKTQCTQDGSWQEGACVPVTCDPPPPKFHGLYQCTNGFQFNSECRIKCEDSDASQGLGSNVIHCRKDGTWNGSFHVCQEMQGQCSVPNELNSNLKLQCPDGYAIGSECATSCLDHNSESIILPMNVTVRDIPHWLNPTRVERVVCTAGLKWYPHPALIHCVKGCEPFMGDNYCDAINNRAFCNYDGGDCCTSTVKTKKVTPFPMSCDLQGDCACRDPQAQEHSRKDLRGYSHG

“chimeric PAPP-A^1100-1111* (loop 2 replaced by amino acids 1125-1136 from PAPP-A2) (enzyme)” came in with an EC50 of IGFBP4 cleavage (400 nM IGFBP4/700 nM IGF1) by the variant, gel-based assay, 37 °C, 4 h in assay [1] of 0.519 nM.

As for “PAPP-A^1100-1135* (PAPP-A^1100-1135 replaced with PAPP-A2^1125-1162) (enzyme)”, the EC50 of IGFBP4 cleavage (400 nM IGFBP4/700 nM IGF1) by the variant, gel-based assay, 37 °C, 4 h in [2] stood at 0.954 nM.

For “C-terminally truncated PAPP-A (1132) (domain or fragment)”, the EC50 of IGFBP4 cleavage (400 nM IGFBP4/700 nM IGF1) by the co-expressed PAPP-A (FL, E483A)/PAPP-A (1132) heterodimer, gel-based assay, 37 °C, 4 h in [3] came out at 0.466 nM.

Substance PAPP-A (1267) (domain or fragment) returned an EC50 of IGFBP4 cleavage (400 nM IGFBP4/700 nM IGF1) by PAPP-A (1267), gel-based assay, 37 °C, 4 h with PAPP-A (1267) (human) of 0.597 nM.

Take “catalytically inactive full-length (FL) PAPP-A (E483A) (enzyme)”: the Kd in assay [4] was 250 nM.

As for “PAPP-A^4C4S (C1112S, C1125S, C1130S and C1135S) (enzyme)”, the EC50 of IGFBP4 cleavage (400 nM IGFBP4/700 nM IGF1) by the variant, gel-based assay, 37 °C, 4 h in assay [5] is 0.402 nM.

With “Wild type (WT) PAPP-A (auto-cleaved) (from UniProt Q13219 82-1627) (enzyme)”, the EC50 of IGFBP4 cleavage (400 nM IGFBP4/700 nM IGF1) by WT PAPP-A, gel-based assay, 37 °C, 4 h in [6] is 0.026 nM. The same substance displayed a Kd in [7] of 380 nM. The EC50 (PAPP-A concentration) of proteolysis of 500 nM IGFBP5 K128D by WT PAPP-A, gel-based assay, 37 °C, 4 h in the assay with IGFBP5 K128D (human) worked out at 15.3 nM. In addition, in the assay with FL IGFBP5 (human), the EC50 (PAPP-A concentration) of proteolysis of 500 nM WT IGFBP5 by WT PAPP-A, gel-based assay, 37 °C, 4 h came out at 0.053 nM. Further, in the assay with IGFBP5 K128A (human), the EC50 (PAPP-A concentration) of proteolysis of 500 nM IGFBP5 K128A by WT PAPP-A, gel-based assay, 37 °C, 4 h worked out at 1.3 nM. The stoichiometry N in assay [8] and in [9] was 2 each time.

In the case of “PAPP-A triple mutant L1254A/F1257A/H1211A (enzyme)”, the EC50 of IGFBP4 cleavage (400 nM IGFBP4/700 nM IGF1) by the triple mutant, gel-based assay, 37 °C, 4 h in assay [10] amounted to 2.6 nM.
